Measurements from patent US20030175270A1, “Methods of regulating cytokine receptor signaling” (priority 2002, published 2003).

These molecules were tested on JAK2 (assay: in vitro tyrosine phosphatase assay, substrate JAK2). Details: 30° C., 20 min.
Assay type: biochemical, mouse
Procedure: For tyrosine phosphatase assays, immunoprecipitated Lyn, JAKs or STATs from lysates of 10^7 BMMCs (for Lyn, JAK1, JAK2, STAT3 and STAT5) or macrophages (for Tyk2) were washed in lysis buffer and phosphatase reaction buffer [Felberg et al., J. Biol. Chem. 273:17839-17845, 1998]. The amounts of Lyn and JAK2 in the immunoprecipitates used in FIG. 3A were 72 ng and 48 ng, respectively, as determined by silver staining. Recombinant CD45 was added to substrates in the presence or absence of 0.1 mM Na3 VO4 followed by incubation at 30° C. for 20 min. Tyrosine phosphorylation was monitored by immunoblotting with phosphotyrosine-specific antibodies. The extent of tyrosine phosphorylation and amount of substrates were determined by quantifying the intensities of the immunoblots with NIH Image 1.61 software. Kinase activity in anti-Lyn or anti-JAK immunoprecipitates was assessed by an in vitro kinase assay with Raytide (Oncogen Science) as a substrate or using authophosphorylation [Lui et al., Genes Dev. 13:786-791, 1999]. In vitro binding assays were performed as described [Felberg et al., J. Biol. Chem. 273:17839-17845, 1998], using 1 μg of soluble GST, GST-CD45-D2, or GST-PTPase-dead CD45 (D1:C828S). EMSAs were as described [Charurvedi et al., Mol. Cell. Biol. 17:3295-3304, 1997]. The sequences of the EMSA probes were: STAT3, 5′-[…]-3′ (SEQ ID NO: 1); STAT3 mutant, 5′-[…]-3′ (SEQ ID NO: 2).
To determine whether CD45 could directly dephosphorylate JAKs and/or STATs, phosphatase assays were used in in vitro studies with recombinant CD45. The rCD45 employed contained the intracellular dual PTPase domains with a relative molecular mas of 97,000 (Mr 97K) (the catalytic D1 and the non-catalytic D2 domains) of CD45 but lacked its extracellular regions. […] Phosphorylation was examined with anti-phosphoryrosine, anti-phospho-Tyr 705 STAT3 (P-Y705-STAT3), and anti-phospho-Try 1007/Try 1008 JAK2 (P-Y1007/1008-JAK2). Assays were performed with 10U (for JAK2) or 90U (for STAT3) of rCD45. […]

Row | Molecule | dephosphorylation of JAK2
1 | TC-PTP: human non-receptor tyrosine PTPase, from Calbiochem (protein) MPTTIEREFEELDTQRRWQPLYLEIRNESHDYPHRVAKFPENRNRNRYRDVSPYDHSRVKLQNAENDYINASLVDIEEAQRSYILTQGPLPNTCCHFWLMVWQQKTKAVVMLNRIVEKESVKCAQYWPTDDQEMLFKETGFSVKLLSEDVKSYYTVHLLQLENINSGETRTISHFHYTTWPDFGVPESPASFLNFLFKVRESGSLNPDHGPAVIHCSAGIGRSGTFSLVDTCLVLMEKGDDINIKQVLLNMRKYRMGLIQTPDQLRFSYMAIIEGAKCIKGDSSIQKRWKELSKEDLSPAFDHSPNKIMTEKYNGNR | did not dephosphorylate JAK2
2 | PTPase-dead rCD45: PTPase-dead recombinant CD45, D1:C828S mutant (protein, UniProt P08575 26-1306, looked up, variant C828S) Receptor-type …: QSPTPSPTGLTTAKMPSVPLSSDPLPTHTTAFSPASTFERENDFSETTTSLSPDNTSTQVSPDSLDNASAFNTTGVSSVQTPHLPTHADSQTPSAGTDTQTFSGSAANAKLNPTPGSNAISDVPGERSTASTFPTDPVSPLTTTLSLAHHSSAALPARTSNTTITANTSDAYLNASETTTLSPSGSAVISTTTIATTPSKPTCDEKYANITVDYLYNKETKLFTAKLNVNENVECGNNTCTNNEVHNLTECKNASVSISHNSCTAPDKTLILDVPPGVEKFQLHDCTQVEKADTTICLKWKNIETFTCDTQNITYRFQCGNMIFDNKEIKLENLEPEHEYKCDSEILYNNHKFTNASKIIKTDFGSPGEPQIIFCRSEAAHQGVITWNPPQRSFHNFTLCYIKETEKDCLNLDKNLIKYDLQNLKPYTKYVLSLHAYIIAKVQRNGSAAMCHFTTKSAPPSQVWNMTVSMTSDNSMHVKCRPPRDRNGPHERYHLEVEAGNTLVRNESHKNCDFRVKDLQYSTDYTFKAYFHNGDYPGEPFILHHSTSYNSKALIAFLAFLIIVTSIALLVVLYKIYDLHKKRSCNLDEQQELVERDDEKQLMNVEPIHADILLETYKRKIADEGRLFLAEFQSIPRVFSKFPIKEARKPFNQNKNRYVDILPYDYNRVELSEINGDAGSNYINASYIDGFKEPRKYIAAQGPRDETVDDFWRMIWEQKATVIVMVTRCEEGNRNKCAEYWPSMEEGTRAFGDVVVKINQHKRCPDYIIQKLNIVNKKEKATGREVTHIQFTSWPDHGVPEDPHLLLKLRRRVNAFSNFFSGPIVVHSSAGVGRTGTYIGIDAMLEGLEAENKVDVYGYVVKLRRQRCLMVQVEAQYILIHQALVEYNQFGETEVNLSELHPYLHNMKKRDPPSEPSPLEAEFQRLPSYRSWRTQHIGNQEENKSKNRNSNVIPYDYNRVPLKHELEMSKESEHDSDESSDDDSDSEEPSKYINASFIMSYWKPEVMIAAQGPLKETIGDFWQMIFQRKVKVIVMLTELKHGDQEICAQYWGEGKQTYGDIEVDLKDTDKSSTYTLRVFELRHSKRKDSRTVYQYQYTNWSVEQLPAEPKELISMIQVVKQKLPQKNSSEGNKHHKSTPLLIHCRDGSQQTGIFCALLNLLESAETEEVVDIFQVVKALRKARPGMVSTFEQYQFLYDVIASTYPAQNGQVKKNNHQEDKIEFDNEVDKVKQDANCVNPLGAPEKLPEAKEQAEGSEPTSGTEGPEHSVNGPASPALNQGS | did not dephosphorylate JAK2
3 | lambda PTPase: bacterial lambda PTPase, from Calbiochem (protein) MRYYEKIDGSKYRNIWVVGDLHGCYTNLMNKLDTIGFDNKKDLLISVGDLVDRGAENVECLELITFPWFRAVRGNHEQMMIDGLSERGNVNHWLLNGGGWFFNLDYDKEILAKALAHKADELPLIIELVSKDKKYVICHADYPFDEYEFGKPVDHQQVIWNRERISNSQNGIVKEIKGADTFIFGHTPAVKPLKFANQMYIDTGAVFCGNLTLIQVQGEGA | did not dephosphorylate JAK2
